Patent publication US20050158362A1, “Polymeric, fiber matrix delivery systems for bioactive compounds” (priority 2000, published 2005)

Test: In vitro release of FITC-BSA from the fiber matrix into an infinite sink of 37° C. phosphate buffered saline
Type: physicochemical
Details: polylactic glycolic acid fiber matrix
Description: To construct the bioactive compound-loaded matrices, various concentrations of finely ground FITC-BSA were suspended in biodegradable polymer polylactic glycolic acid in 50:50 dimethyl formamide:tetrahydrofuran. Suspensions contained in a glass syringe with a capillary tip were electrospun into approximately 500 nm diameter fibers via an electrostatic based self-assembly process in which a high voltage electric field was generated between the oppositely charged polymer and a metallic collection screen. At a critical voltage the charge overcomes the surface tension of the deformed polymer drop at the needle tip, producing an ultrafine jet. The similarly charged fibers are splayed and during their passage to the screen, the solvent quickly evaporates so that dry fibers accumulate randomly on the screen forming a mesh matrix.
In vitro release of the FITC-BSA into an infinite sink of 37° C. phosphate buffered saline was also measured. This sink mimics in vivo conditions.
A 25% (w/v) solution of polylactic glycolic acid was prepared in a 50:50 mixture of dimethylformamide and tetrahydrofuran. […]
In vitro release of the FITC-BSA into an infinite sink of 37° C. phosphate buffered saline was measured. […] The amount of protein released was measured in the form of fluorescence of the FITC-BSA on a spectrophotofluorometer at an excitation wavelength of 495 nm and an emission wavelength of 513 nm.

With “FITC-BSA: fluorescently labeled bovine serum albumin dispersed between electrospun polylactic glycolic acid fibers of the matrix” the “in vitro release profile of FITC-BSA” value was “release in the first 24 hours after initiation was dominant” and the “duration of observed in vitro release of FITC-BSA” value (fluorescence readout) was “over 120 hours”.
